Experimental data as given in IntAct's records for PubMed 16832058.

B1: Proliferation-associated protein 2G4 (Homo sapiens), Q9UQ80 (parent)
chain: MSGEDEQQEQTIAEDLVVTKYKMGGDIANRVLRSLVEASSSGVSVLSLCEKGDAMIMEETGKIFKKEKEMKKGIAFPTSISVNNCVCHFSPLKSDQDYILKEGDLVKIDLGVHVDGFIANVAHTFVVDVAQGTQVTGRKADVIKAAHLCAEAALRLVKPGNQNTQVTEAWNKVAHSFNCTPIEGMLSHQLKQHVIDGEKTIIQNPTDQQKKDHEKAEFEVHEVYAVDVLVSSGEGKAKDAGQRTTIYKRDPSKQYGLKMKTSRAFFSEVERRFDAMPFTLRAFEDEKKARMGVVECAKHELLQPFNVLYEKEGEFVAQFKFTVLLMPNGPMRITSGPFEPDLYKSEMEVQDAELKALLQSSASRKTQKKKKKKASKTAENATSGETLEENEAGD

Variants of: B1
Details: with erbb3_rat Erbb3, Q62799
Sequence of erbb3_rat Erbb3, Q62799 (Q62799 whole entry): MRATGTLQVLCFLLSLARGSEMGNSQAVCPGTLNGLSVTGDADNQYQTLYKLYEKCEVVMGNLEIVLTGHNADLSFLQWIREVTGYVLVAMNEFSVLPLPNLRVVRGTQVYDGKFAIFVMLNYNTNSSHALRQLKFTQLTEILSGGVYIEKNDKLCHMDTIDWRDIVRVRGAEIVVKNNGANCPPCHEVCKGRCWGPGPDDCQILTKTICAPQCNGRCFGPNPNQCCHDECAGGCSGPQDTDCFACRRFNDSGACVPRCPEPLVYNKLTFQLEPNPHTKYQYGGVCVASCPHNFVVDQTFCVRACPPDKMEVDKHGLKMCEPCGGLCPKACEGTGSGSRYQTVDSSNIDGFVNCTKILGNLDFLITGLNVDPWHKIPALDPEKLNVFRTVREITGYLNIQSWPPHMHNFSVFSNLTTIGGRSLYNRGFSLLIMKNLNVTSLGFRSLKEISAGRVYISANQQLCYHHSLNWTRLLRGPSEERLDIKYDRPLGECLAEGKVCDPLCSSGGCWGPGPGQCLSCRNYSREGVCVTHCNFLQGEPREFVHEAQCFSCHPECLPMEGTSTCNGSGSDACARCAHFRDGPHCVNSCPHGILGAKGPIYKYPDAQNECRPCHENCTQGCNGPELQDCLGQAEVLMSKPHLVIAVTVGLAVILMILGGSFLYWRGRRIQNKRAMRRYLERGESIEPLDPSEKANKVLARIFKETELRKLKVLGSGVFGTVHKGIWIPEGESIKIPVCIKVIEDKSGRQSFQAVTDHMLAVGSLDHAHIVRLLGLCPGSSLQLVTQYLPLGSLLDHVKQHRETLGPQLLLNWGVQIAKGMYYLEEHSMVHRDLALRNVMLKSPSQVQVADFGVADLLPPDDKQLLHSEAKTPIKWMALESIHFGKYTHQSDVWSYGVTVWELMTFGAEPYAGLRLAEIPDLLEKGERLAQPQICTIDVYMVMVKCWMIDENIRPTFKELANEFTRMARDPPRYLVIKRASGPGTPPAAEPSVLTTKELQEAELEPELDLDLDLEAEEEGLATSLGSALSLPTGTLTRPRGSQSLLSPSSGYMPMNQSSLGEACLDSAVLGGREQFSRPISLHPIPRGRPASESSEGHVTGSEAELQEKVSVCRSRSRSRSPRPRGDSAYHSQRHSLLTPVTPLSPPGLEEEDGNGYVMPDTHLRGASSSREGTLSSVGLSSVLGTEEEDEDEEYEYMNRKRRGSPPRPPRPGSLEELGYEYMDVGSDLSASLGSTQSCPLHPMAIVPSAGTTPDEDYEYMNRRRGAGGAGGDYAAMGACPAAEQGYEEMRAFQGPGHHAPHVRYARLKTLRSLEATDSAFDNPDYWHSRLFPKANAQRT

Row | effect of a mutation on the interaction | Variant
1 | disrupting interaction strength | S360A
